This passage reports inhibition of Cas9 cleavage activity in the quenched FRET fluorescence assay results from patent US11807877.

Assay [1] has as its target Streptococcus pyogenes Cas9, wild-type (Streptococcus pyogenes) (UniProt Q99ZW2). The assay can be described thus: cell-based or functional assay.
Assay [2] deals with Staphylococcus aureus Cas9, wild-type (Staphylococcus aureus) (UniProt J7RUA5). In words: cell-based or functional assay.
UniProt J7RUA5, sequence (J7RUA5 2-1053, tags left off): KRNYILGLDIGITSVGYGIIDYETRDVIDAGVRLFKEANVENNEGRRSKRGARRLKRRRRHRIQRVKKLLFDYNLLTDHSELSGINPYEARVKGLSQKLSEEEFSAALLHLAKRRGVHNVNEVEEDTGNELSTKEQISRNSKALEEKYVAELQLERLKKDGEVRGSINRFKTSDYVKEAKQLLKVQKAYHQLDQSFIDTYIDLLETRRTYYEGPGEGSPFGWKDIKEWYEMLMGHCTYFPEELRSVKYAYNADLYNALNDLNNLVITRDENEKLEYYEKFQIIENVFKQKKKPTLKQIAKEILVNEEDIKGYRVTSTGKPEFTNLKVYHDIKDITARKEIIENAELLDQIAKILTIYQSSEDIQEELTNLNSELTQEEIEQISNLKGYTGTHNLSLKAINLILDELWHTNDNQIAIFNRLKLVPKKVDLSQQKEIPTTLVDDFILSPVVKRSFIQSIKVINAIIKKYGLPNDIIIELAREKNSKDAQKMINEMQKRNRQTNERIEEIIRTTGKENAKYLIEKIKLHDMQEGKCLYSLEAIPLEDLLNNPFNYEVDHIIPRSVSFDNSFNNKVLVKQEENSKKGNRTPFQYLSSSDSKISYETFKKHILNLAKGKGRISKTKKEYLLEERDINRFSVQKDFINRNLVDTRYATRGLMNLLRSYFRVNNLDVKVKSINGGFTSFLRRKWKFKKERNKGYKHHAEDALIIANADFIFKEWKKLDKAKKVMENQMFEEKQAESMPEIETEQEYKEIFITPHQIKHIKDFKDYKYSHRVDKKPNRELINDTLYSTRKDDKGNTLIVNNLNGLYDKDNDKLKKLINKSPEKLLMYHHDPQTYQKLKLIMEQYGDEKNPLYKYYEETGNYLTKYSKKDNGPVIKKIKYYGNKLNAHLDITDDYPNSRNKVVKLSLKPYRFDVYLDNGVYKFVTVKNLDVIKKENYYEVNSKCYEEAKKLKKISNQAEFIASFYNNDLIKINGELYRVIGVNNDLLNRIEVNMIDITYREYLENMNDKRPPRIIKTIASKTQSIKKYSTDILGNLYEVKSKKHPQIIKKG

UniProt Q99ZW2, sequence (Q99ZW2 whole entry): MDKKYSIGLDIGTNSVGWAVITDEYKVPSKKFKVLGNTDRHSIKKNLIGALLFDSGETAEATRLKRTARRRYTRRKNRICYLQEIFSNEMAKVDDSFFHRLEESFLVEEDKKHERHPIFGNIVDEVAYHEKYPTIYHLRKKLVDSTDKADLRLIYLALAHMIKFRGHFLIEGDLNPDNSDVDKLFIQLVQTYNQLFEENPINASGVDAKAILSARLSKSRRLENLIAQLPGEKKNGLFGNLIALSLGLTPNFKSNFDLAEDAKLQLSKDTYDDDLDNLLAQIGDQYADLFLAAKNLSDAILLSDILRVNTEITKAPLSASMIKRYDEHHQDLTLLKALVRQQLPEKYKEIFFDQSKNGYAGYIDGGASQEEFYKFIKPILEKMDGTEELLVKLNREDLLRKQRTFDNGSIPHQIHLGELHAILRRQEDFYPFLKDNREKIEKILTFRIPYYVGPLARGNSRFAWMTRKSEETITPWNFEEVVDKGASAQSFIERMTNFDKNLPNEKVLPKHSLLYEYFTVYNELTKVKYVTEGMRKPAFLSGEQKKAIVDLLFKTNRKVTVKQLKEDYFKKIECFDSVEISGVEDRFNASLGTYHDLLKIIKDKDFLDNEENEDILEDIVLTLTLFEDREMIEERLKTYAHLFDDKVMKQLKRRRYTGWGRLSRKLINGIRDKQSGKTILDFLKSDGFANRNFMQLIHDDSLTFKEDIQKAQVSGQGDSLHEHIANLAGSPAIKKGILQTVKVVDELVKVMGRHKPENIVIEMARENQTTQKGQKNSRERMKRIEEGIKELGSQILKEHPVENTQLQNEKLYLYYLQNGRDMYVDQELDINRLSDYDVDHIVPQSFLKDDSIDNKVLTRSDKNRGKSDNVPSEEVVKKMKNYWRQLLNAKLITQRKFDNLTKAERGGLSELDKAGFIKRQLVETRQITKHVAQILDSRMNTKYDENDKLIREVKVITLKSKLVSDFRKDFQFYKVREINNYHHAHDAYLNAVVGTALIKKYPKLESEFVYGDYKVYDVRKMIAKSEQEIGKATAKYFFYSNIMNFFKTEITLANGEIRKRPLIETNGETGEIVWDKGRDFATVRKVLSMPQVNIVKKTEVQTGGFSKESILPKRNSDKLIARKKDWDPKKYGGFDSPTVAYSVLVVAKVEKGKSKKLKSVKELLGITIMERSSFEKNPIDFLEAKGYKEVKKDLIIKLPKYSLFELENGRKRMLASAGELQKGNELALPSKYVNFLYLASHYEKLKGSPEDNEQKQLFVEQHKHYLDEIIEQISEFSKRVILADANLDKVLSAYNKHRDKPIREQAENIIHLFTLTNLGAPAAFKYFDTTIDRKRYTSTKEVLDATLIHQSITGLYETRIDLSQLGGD

For AcrIIA4 anti-CRISPR protein, the results for the inhibition of Cas9 cleavage activity in the quenched FRET fluorescence assay in assay [1] and in assay [2] were below 0.03 µM and above 10 µM, respectively.

Turning to AcrIIC1 anti-CRISPR protein, the inhibition of Cas9 cleavage activity in the quenched FRET fluorescence assay in assay [1] and in assay [2] was above 10 µM throughout.
